Values quoted from earlier work, collected in publication PMC5897016.

Molecular target: Complement C5 (Homo sapiens) (UniProt P01031)

Kd: < 0.05 nM
Substance: eculizumab
